Test results: the supplement of paper PMC9170038

Test system: MS2 coat protein
Test: apparent KD of MS2 coat protein; designed switch direction (-1 OFF switch, 1 ON switch): 1; higher = weaker reporter binding
Method in brief: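 The buffer was Tris-HCl pH 7.5 with KCl, MgCl2, BSA, DTT, tRNA and Tween-20. In it, SNAP-549-labelled MS2 coat protein was titrated in doubling steps from 0.7 or 1.5 nM to 3 µM over chip-bound RNA switches transcribed by stalled E. coli RNA polymerase on Illumina chips. Apparent KD is the per-design median over clusters of curve fits to normalised fluorescence.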

[1] = Eterna round: R95, input ligand: FMN 200 uM
[2] = Eterna round: R95, input ligand: microRNA oligo, concentration not stated
[3] = Eterna round: R95, input ligand: none

Sequence	apparent KD of MS2 coat protein [1]	apparent KD of MS2 coat protein [2]	apparent KD of MS2 coat protein [3]	apparent KD of MS2 coat protein (input ligand: FMN 200 uM)	apparent KD of MS2 coat protein (input ligand: microRNA oligo, concentration not stated)	apparent KD of MS2 coat protein (input ligand: none)
AGUCCAGCCUGAGCUGGACAAAAGCAUGUACAUGAGGAUCACCCAUGUCAUGUACAGGCUUUUUGCUCGUCUUAAUA [Zipper 49 - 7] (puzzle: Sensor for hsa-mir-208a)	433 nM	16.8 nM	583 nM			
AGUCCAGCCUGAGCUGGACAAAAGCAUGUACAUGAGGAUCACCCAUGUCAUGUGCAAGCUUUUUGCUCGUCUUAAUA [Zipper 49 - 5] (puzzle: Sensor for hsa-mir-208a)	64.5 nM	11.9 nM	70.3 nM			
AGUCCAGCCUGAGCUGGACAAAAGCAUGUACAUGAGGAUCACCCAUGUCGUGUACAAGCUUUUUGCUCGUCUUAAAA [Zipper 46 - 5] (puzzle: Sensor for hsa-mir-208a)	376 nM	12.4 nM	334 nM			
AGUCCAGCCUGAGCUGGACAAAAGCAUGUACAUGAGGAUCACCCAUGUUCAUGUACAAGCUUUUUGCUCGAAUUAAA [Mat - hsa-mir-208a - Mod of JL - 53] (puzzle: Sensor for hsa-mir-208a)	558 nM	15.4 nM	822 nM			
AGUCCAGCCUGAGCUGGACAAAAGCAUGUACAUGAGGAUCACCCAUGUUCAUGUACAAGCUUUUUGCUCGUCUUAAG [salish99_208a_r3_028] (puzzle: Sensor for hsa-mir-208a)	606 nM	16 nM	602 nM			
AGUCCAGCCUGAGCUGGACAAAAGCAUGUACAUGAGGAUCACCCAUGUUCAUGUACAAGCUUUUUGCUCGUCUUGCU [salish99_208a_r3_105x] (puzzle: Sensor for hsa-mir-208a)	578 nM	15.7 nM	680 nM			
AGUCCAGCCUGAGCUGGACAAAAGCAUGUACAUGAGGAUCACCCAUGUUCAUGUACAAGUUUUUUGCUCGUCUUAAA [Zipper 52 - 10] (puzzle: Sensor for hsa-mir-208a)	38.4 nM	11.1 nM	39.6 nM			
AGUCCAGCCUGAGCUGGACAAAAGCAUGUACAUGAGGAUCACCCAUGUUUAUGUACAAGCUUUUUGCUCGUCUUAAA [Zipper 52 - 12] (puzzle: Sensor for hsa-mir-208a)	257 nM	16.2 nM	313 nM			
AGUCCAGCCUGAGCUGGACAAGAGCAUGUACAUGAGGAUCACCCAUGUCAUGUACAAGCUUUUUGCUCGUCUUAAUA [Zipper 49 - 2] (puzzle: Sensor for hsa-mir-208a)	470 nM	14.9 nM	530 nM			
AGUCCUGAAUAAAUUAAACAGAGACAUGUACAUGAGGAUCACCCAUGUCAUGUGCAAGUUUUUUGCUCGUCAUAUAA [Sensorship 17 - Jieux - Sensor for hsa-mir-208a] (puzzle: Sensor for hsa-mir-208a)	13.7 nM	10.7 nM	14.9 nM			
AGUGAACAUGAGGAUCACCCAUGUGAGAGAAGUGUAGGAUAUGUGAGGAGCAGAGGAGGGACAGAAGGACAUGGAG [JR_SS!_Sub074] (puzzle: Same State 1)	32.1 nM	38 nM	51.8 nM			
AUAAAACACAUGAGGAUCACCCAUGUGGCCGUAGUCGGCACACAGGAUAUCAAGCAACUAGAGCUUGAGAAGGGUGAGACAAAA [Raar] (Eterna round: R96, puzzle: Same State NG 3)				179 nM	4.09 nM	250 nM
AUAAAACAUGAGGAUCACCCAUGUCAACAAAGUCGAGGAUAUGGGCAAAUAAAAUAAGAACCAGAAGGUGAAUAAU [salish99_ss1_r3_032] (puzzle: Same State 1)	131 nM	31.5 nM	146 nM			
